Here are results for four substances from patent US20250188154A1.

For experiment [1], the target named is SARS-CoV-2 Spike-2P stabilized S ectodomain trimer (SARS-CoV-2) (UniProt P0DTC2). The experiment can be described thus: SPR. Background: Surface plasmon resonance follows binding to a sensor surface in real time, without labels.
Another experiment concerns the target SARS-CoV-2 spike-HexaPro. The experiment can be described thus: SPR.
In experiment [2] the target is SARS-CoV live virus spike (SARS-CoV) (UniProt P59594). Kind of experiment: cell-based or functional assay.
Experiment [3] deals with bat CoV WIV-1 live virus spike (bat coronavirus WIV-1). The experiment can be described thus: cell-based or functional assay.
In experiment [4] the target is bat CoV RsSHC014 live virus spike (bat coronavirus RsSHC014). The experiment can be described thus: cell-based or functional assay.
Another experiment deals with rhFcγRI/CD64 (human) (UniProt P12314). Kind of experiment: SPR, DH1042 captured on CM5, receptor titrated.
Sequence of UniProt P12314 (P12314 16-288 limits assumed): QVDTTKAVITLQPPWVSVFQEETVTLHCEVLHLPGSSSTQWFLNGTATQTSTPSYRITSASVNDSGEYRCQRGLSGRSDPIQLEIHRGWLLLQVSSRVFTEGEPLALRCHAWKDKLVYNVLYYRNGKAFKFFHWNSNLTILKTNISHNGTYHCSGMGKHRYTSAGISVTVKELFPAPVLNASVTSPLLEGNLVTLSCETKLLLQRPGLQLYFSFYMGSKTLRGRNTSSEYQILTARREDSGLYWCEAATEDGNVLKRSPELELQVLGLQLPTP
Another experiment has as its target rhFcγRIIIA/CD16a (human) (UniProt P08637). Kind of experiment: SPR, DH1042 captured on CM5, receptor titrated.
Sequence of UniProt P08637 (P08637 17-208 limits assumed): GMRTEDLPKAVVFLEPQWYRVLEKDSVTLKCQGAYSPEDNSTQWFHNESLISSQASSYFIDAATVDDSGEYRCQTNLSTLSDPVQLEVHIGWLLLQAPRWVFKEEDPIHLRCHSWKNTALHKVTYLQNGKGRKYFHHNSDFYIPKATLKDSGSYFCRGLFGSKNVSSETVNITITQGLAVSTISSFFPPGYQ
Experiment [5] concerns the target RNP, ribonucleoprotein (human) (UniProt Q96LT9). Kind of experiment: AtheNA Luminex, mAb at 50 (mg/mL [sic]); <100 negative.
Sequence of UniProt Q96LT9 (Q96LT9 whole entry): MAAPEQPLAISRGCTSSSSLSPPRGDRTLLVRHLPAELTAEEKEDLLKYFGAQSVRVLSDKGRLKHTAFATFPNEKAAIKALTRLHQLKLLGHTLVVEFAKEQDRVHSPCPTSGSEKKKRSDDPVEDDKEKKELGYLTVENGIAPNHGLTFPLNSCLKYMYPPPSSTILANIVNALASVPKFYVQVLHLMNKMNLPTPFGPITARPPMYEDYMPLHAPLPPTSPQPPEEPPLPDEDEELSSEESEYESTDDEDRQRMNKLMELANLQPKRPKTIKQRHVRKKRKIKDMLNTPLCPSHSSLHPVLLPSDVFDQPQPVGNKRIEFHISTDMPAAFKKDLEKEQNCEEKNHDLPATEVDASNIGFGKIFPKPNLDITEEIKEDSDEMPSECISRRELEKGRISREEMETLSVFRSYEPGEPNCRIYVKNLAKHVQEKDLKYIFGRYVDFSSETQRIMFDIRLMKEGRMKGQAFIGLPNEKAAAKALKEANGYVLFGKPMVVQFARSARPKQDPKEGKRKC
Experiment [6] deals with Jo 1 (human) (UniProt P12081). The experiment is described as above.
Sequence of UniProt P12081 (P12081 2-509): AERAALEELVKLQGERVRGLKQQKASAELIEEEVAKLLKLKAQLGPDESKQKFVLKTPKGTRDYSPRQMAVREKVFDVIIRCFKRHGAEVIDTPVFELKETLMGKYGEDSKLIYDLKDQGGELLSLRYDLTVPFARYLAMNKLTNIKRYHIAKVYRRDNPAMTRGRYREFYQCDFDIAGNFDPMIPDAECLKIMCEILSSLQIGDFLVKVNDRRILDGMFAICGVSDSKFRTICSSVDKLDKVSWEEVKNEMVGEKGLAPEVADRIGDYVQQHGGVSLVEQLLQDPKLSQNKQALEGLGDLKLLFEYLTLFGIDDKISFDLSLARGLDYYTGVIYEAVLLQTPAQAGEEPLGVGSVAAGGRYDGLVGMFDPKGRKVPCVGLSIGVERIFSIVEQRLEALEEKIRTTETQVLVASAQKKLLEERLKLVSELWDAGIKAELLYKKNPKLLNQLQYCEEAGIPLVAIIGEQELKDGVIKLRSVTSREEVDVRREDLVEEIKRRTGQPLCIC
Experiment [7] has as its target Sm, small nuclear riboproteins (human). Described as above.
The target of experiment [8] is Scl 70, scleroderma 70 (human) (UniProt P11387). The experiment is described as above.
Sequence of UniProt P11387 (P11387 2-765): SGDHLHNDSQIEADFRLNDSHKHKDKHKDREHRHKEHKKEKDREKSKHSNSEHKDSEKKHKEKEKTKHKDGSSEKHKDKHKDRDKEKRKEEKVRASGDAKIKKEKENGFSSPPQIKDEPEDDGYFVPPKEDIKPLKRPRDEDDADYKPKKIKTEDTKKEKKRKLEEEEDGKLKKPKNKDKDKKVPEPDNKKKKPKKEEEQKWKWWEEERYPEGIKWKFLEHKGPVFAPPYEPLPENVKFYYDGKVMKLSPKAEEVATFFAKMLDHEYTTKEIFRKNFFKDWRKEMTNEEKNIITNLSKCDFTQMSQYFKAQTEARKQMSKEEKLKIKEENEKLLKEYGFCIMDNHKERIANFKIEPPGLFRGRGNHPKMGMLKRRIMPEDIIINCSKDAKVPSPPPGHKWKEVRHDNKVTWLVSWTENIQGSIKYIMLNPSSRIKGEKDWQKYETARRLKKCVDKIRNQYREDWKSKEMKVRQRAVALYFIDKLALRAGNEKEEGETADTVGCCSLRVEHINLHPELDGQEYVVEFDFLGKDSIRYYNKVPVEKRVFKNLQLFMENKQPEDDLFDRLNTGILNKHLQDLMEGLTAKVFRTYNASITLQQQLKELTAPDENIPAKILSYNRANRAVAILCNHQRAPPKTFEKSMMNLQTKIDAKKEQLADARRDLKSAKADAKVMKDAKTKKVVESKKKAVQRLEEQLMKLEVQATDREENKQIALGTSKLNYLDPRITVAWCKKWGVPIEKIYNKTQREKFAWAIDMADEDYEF
Experiment [9] addresses SSA, Sjogren's syndrome antigen A (human). The experiment is described as above.
Experiment [10] has as its target Histone (human). The experiment is described as above.
The target of experiment [11] is SSB, Sjogren's syndrome antigen B (human) (UniProt P05455). The description is as above.
Sequence of UniProt P05455 (P05455 whole entry): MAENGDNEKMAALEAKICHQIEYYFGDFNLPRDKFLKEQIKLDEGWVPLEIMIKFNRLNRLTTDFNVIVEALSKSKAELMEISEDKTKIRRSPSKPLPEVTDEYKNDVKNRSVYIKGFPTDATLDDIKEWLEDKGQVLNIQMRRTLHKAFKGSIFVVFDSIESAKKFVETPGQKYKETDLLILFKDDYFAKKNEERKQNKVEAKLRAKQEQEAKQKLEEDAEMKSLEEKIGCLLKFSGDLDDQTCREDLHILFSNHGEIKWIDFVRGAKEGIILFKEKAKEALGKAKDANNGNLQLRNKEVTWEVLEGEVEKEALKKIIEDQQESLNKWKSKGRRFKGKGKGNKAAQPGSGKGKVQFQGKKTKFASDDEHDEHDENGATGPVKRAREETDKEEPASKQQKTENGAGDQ
The target of experiment [12] is Cent B, centromere B (human) (UniProt P07199). Described as above.
Sequence of UniProt P07199 (P07199 2-599): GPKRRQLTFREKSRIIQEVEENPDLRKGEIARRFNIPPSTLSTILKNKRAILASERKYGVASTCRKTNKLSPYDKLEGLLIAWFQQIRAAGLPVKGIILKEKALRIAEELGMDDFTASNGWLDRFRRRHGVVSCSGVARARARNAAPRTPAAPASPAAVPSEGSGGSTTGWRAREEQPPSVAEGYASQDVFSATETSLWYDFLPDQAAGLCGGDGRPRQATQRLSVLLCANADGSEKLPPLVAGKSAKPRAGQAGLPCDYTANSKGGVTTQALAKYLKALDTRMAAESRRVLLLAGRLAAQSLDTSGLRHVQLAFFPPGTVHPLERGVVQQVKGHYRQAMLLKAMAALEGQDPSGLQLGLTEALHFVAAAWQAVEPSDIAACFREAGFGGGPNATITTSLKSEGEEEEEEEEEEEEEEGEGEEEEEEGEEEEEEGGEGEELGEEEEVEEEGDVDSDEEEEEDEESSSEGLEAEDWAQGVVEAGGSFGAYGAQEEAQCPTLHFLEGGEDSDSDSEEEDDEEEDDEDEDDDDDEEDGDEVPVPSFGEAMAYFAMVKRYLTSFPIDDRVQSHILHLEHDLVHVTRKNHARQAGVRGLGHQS
Experiment [13] addresses RNP, ribonucleoprotein (human) (UniProt Q96LT9). Kind of experiment: AtheNA Luminex, mAb at 6.25 (mg/mL [sic]); <100 negative.
In experiment [14] the target is Jo 1 (human) (UniProt P12081). The description is as above.
In experiment [15] the target is Sm, small nuclear riboproteins (human). The description is as above.
Experiment [16] deals with Scl 70, scleroderma 70 (human) (UniProt P11387). Described as above.
Experiment [17] addresses SSA, Sjogren's syndrome antigen A (human). The description is as above.
The target of experiment [18] is Histone (human). The experiment is described as above.
Experiment [19] addresses SSB, Sjogren's syndrome antigen B (human) (UniProt P05455). Described as above.
Experiment [20] has as its target Cent B, centromere B (human) (UniProt P07199). The description is as above.
Experiment [21] deals with RNP, ribonucleoprotein (human) (UniProt Q96LT9). The experiment can be described thus: AtheNA Luminex, mAb at 25 (mg/mL [sic]); <100 negative.
The target in experiment [22] is Jo 1 (human) (UniProt P12081). The description is as above.
Experiment [23] deals with Sm, small nuclear riboproteins (human). Described as above.
Experiment [24] concerns the target Scl 70, scleroderma 70 (human) (UniProt P11387). The description is as above.
Experiment [25] addresses SSA, Sjogren's syndrome antigen A (human). The description is as above.
Experiment [26] has as its target Histone (human). The experiment is described as above.
The target of experiment [27] is SSB, Sjogren's syndrome antigen B (human) (UniProt P05455). Described as above.
Experiment [28] has as its target Cent B, centromere B (human) (UniProt P07199). Described as above.
Experiment [29] has as its target RNP, ribonucleoprotein (human) (UniProt Q96LT9). The experiment can be described thus: AtheNA Luminex, mAb at 12.5 (mg/mL [sic]); <100 negative.
Experiment [30] concerns the target Jo 1 (human) (UniProt P12081). Described as above.
Experiment [31] addresses Sm, small nuclear riboproteins (human). The experiment is described as above.
Experiment [32] concerns the target Scl 70, scleroderma 70 (human) (UniProt P11387). The experiment is described as above.
Experiment [33] addresses SSA, Sjogren's syndrome antigen A (human). Described as above.
For experiment [34], the target named is Histone (human). The experiment is described as above.
Experiment [35] has as its target SSB, Sjogren's syndrome antigen B (human) (UniProt P05455). The description is as above.
Experiment [36] concerns the target Cent B, centromere B (human) (UniProt P07199). The description is as above.

In the case of DH1047, the Kd (usually a measure of binding affinity in units of concentration) in [1] was less than 0.1 nM; with SARS-CoV-2 spike-HexaPro, 0.08 nM.
In the case of DH1047 (antibody), the live virus neutralization IC50 came out at 0.028 µg/mL in experiment [2], 0.191 µg/mL in experiment [3] and 0.2 µg/mL in experiment [4].
DH1042: the Kd amounted to 0.6 nM in experiment [1] and 0.8 nM with SARS-CoV-2 spike-HexaPro.
As to DH1042 (antibody), the values for the Kd in the experiment with rhFcγRI/CD64 (human) and with rhFcγRIIIA/CD16a (human) were 414000 nM and 406 nM, respectively. Besides, the AtheNA value in [5] was 6; with Jo 1 (human) [6] it was 2; in [7], 3; in experiment [8], 1; in experiment [9], 2; with Histone (human) [10] it was 9. In addition, the AtheNA value amounted to 4 in experiment [11]; 56 in experiment [12]; 1 in experiment [13]; 2 in the experiment with Jo 1 (human) [14]; 3 in experiment [15]; 1 in experiment [16]. For the same substance, the AtheNA value amounted to 1 in experiment [17]; 2 with Histone (human) [18]; 3 in experiment [19]; 6 in experiment [20]; 4 in experiment [21]; 4 with Jo 1 (human) [22]. Further, the AtheNA value in [23] is 2; in experiment [24], 2; in [25] it was 2; with Histone (human) [26], 6; in experiment [27], 5; in [28], 26. In addition, the AtheNA value in experiment [29] was determined as 0; with Jo 1 (human) [30] it was 1; in [31], 1; in experiment [32], 0; in experiment [33] it was 3; with Histone (human) [34], 3. Moreover, the AtheNA value in experiment [35] was 2; in experiment [36], 12.
